Measurements from patent US20180057581A1 (MorphoSys, published 2018).

Key:
[1] = molecular target: T1, Recombinant cynomolgus monkey sgM-CSF (cynomolgus (Macaca fascicularis), UniProt P09603 33-255 (human entry), limits assumed); assay: Receptor binding assay, inhibition of cynomolgus M-CSF binding to M-CSF receptor (competitor CSF1-R-Fc); Table 12 summary
T1 construct: used also where only 'cynomolgus M-CSF' is printed (ELISA result, SET); also called cynomolgus sgM-CSF; cyno sgM-CSF
T1 chain: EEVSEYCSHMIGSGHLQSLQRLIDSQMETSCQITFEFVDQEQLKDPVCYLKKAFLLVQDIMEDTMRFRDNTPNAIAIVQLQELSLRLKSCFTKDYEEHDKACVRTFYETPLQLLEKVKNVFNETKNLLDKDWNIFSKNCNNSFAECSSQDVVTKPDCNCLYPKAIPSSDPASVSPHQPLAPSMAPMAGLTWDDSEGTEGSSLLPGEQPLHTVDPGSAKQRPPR
Experimental: Complexes were then transferred to 384 well MSD plates coated with 2 μg/ml of the corresponding receptor. Plates were then washed and incubated with the streptavidin/ECL conjugate for 2 h with shaking at room temperature. 35 μl MSD read buffer T with surfactant was then added per well and subsequently measured using MSD Sector Imager 6000.

[2] = molecular target: T2, Recombinant human sgM-CSF (human, UniProt P09603 33-255); assay: Receptor binding assay, inhibition of human M-CSF binding to M-CSF receptor (competitor CSF1-R-Fc); Table 12 summary
T2 construct: also called human secreted glycosylated M-CSF; Human M-CSF
T2 sequence: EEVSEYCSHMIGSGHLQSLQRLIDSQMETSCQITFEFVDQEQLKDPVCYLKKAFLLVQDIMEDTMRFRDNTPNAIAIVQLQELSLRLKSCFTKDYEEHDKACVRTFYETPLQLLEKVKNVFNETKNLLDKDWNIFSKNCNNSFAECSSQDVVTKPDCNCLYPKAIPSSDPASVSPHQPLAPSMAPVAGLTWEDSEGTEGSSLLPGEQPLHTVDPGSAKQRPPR

[3] = molecular target: T2, Recombinant human sgM-CSF; assay: cell-based or functional assay
[4] = molecular target: T1, Recombinant cynomolgus monkey sgM-CSF; assay: cell-based or functional assay

B1: Camille (format not stated) (antibody, V domains shown)
VH: QVQLQQSGPGLVKPSQTLSLTCAISGESVSTSSAAWNWIRQSPSRGLEWLGRTYYRSKWKHEYAVSVKSRITINPDTSKNQFSLQLNSVTPEDTAVYYCARDRYYYSAFDYWGQGTLVTVSS
VL: QSALTQPASVSGSPGQSITISCTGTSSDVGGYNSVSWYQQHPGKAPKLLIYAVSNRPSGVSNRFSGSKSGNTASLTISGLQAEDEADYYCASYDERFTRVFGGGTKLTVLG
notes: also called Antibody Camille
[1]
  IC50: 6 pM
[2]
  IC50: 4 pM
[3]
  Cell viability assay (IC50), Human M-CSF: 2 pM
[4]
  Cell viability assay (IC50), Cynomolgus M-CSF: 3 pM
